Data reported in US20220288203A1.
Blank lines part the entries; values can stand above or below the binder they belong to.

Key:
[1] = target: Human podocalyxin as endogenously expressed and displayed by tumor cell lines (A172, SKOV3, MIA PaCa-2, MDA-MB-231) (human) (UniProt O00592); assay: flow cytometry titration on A172 cells, four-parameter fit (Prism)
[2] = target: Human podocalyxin as endogenously expressed and displayed by tumor cell lines (A172, SKOV3, MIA PaCa-2, MDA-MB-231) (human) (UniProt O00592); assay: KinExA 3200; titrated A172 cells with constant antibody, 16 h equilibrium, free antibody measured
[3] = target: Human podocalyxin as endogenously expressed and displayed by tumor cell lines (A172, SKOV3, MIA PaCa-2, MDA-MB-231) (human) (UniProt O00592); assay: KinExA 3200; titrated A172 cells with constant antibody, 16 h equilibrium

Sequence of Human podocalyxin as endogenously expressed and displayed by tumor cell lines (A172, SKOV3, MIA PaCa-2, MDA-MB-231) (human) (O00592 23-558): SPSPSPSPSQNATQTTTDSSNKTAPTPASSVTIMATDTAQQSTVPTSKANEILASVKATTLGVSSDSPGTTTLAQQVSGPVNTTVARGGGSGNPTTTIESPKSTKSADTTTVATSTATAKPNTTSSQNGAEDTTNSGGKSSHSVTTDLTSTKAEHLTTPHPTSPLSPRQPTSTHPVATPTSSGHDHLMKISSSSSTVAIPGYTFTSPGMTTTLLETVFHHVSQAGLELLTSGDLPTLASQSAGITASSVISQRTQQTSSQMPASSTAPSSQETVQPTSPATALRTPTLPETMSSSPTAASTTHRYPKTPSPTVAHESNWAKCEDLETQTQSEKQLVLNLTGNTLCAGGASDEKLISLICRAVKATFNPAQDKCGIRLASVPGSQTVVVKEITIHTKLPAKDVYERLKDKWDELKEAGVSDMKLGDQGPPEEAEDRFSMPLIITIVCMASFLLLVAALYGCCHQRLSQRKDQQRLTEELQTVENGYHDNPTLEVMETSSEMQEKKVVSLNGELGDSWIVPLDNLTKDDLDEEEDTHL

Bottom (best-fit) [1]: 8630 | LogIC50 [1]: 2.28 | Span (best-fit) [1]: 371000 | Top (best-fit) [1]: 380000 | Kd [2]: 0.00757 nM | Epitopes/Cell (epitopes/cell) [3]: 420000 | Kd High [3]: 0.0249 nM | Kd Low [3]: 0.0023 nM
B1: Podo447, recombinant rabbit/human chimeric anti-podocalyxin antibody (rabbit V genes, human IgG1 and kappa constant regions) (antibody, V domains shown)
VH: QSLEESGGRLVTPGTPLTLTCTASGFSLSGYQMNWVRQAPGKGLEWIGYIWSDGGTDYASWAKGRFTISKTSSTTVDLKMTSLTTEDTATYFCAREGYWLGAFDPWGPGTLVTVSS
VL: AAVLTQTPSPVSAAVGATVSVSCQSSQSVHHKNDLAWFQQKPGQPPKLLIYYTSTLASGVPSRFKGSGSGTQFTLTISDLECDDAATYYCAGVYEGSSDNRAFGGGTEVVVKR

Bottom (best-fit) [1]: 1940 | LogIC50 [1]: 2.09 | Span (best-fit) [1]: 236000 | Top (best-fit) [1]: 238000 | Kd [2]: 0.0144 nM | Epitopes/Cell (epitopes/cell) [3]: 233000 | Kd High [3]: 0.0459 nM | Kd Low [3]: 0.00459 nM
B2: Humanized Podo447 (humanized_podo447VH_hIgG1C + humanized_podo447VL6_hIgkC) (antibody, V domains shown)
VH: EVQLVESGGGLVQPGRSLRLSCTASGFSLSGYQMNWVRQAPGKGLEWVGYIWSDGGTDYTASVKGRFTISRDGSKSIAYLQMNSLKTEDTAVYYCAREGYWLGAFDPWGQGTSVTVSA
VL: AAQLTQSPSPLSASVGDRVTITCQSSQSVHHKNDLAWYQQKPGKAPKLLIYYTSTLASGVPSRFSGSGSGTDFTLTISSLQPEDFATYYCAGVYEGSSDNRAFGGGTKVEIKR
